Measured values published in the Human Domainome abundance scans (Beltran et al. 2025).

B1: SH3 and PX domain-containing protein 2B, residues 155 to 209; numbered along this chain, A1X283 (parent)
chain: EQYVVVANYQKQESSEISLSVGQVVDIIEKNESGWWFVSTAEEQGWVPATCLEGQ

Variants of: B1
Assay: abundance fitness (aPCA) (normalised: wild type 0, dead -1); higher = more abundant; growth selection in yeast, the domain comes from the species named
Settings: Homo sapiens

Abundance fitness, by site and new letter:
I27: E -0.944, S -0.404, P -0.008, C -0.001, V 0.055, F -0.145, Y -0.149, K -0.617
D26: K 0.028, M -0.134, T -0.109, Q -0.052, R -0.103, S -0.122, N 0.146, A -0.054, C -0.269, F -0.262, Y -0.272, H -0.214, G -0.126, E -0.112, I -0.508, L -0.078, P -0.928, V -0.179
Q23: R -0.405, E 0.001, D -0.034, M -0.039, N -0.037, F -0.741, P -0.978, W -0.292, L -0.288, I -0.308, G -0.263, H -0.136, T -0.085
F37: C -0.127, E -0.237, A -0.174, D -0.347
G22: Y -0.498, W -0.834, Q -0.512, N -0.33, F -0.91, V -0.945, I -1.05, E -0.673, K -0.789, M -0.617, C -0.638, T -0.588, R -0.549, S -0.503, L -0.921, P -0.83, D -0.246, H -0.581, A -0.5
V21: Q -0.036, T -0.061, S -0.238, Y -0.444, M -0.066, F -0.286, G -0.453, K 0.092, C -0.025, E 0.096, A -0.043, P -0.315, R -0.005, I -0.166, W -0.566, L -0.188, N -0.342, D -0.593
I28: T -0.116, R -0.211, M -0.125, V 0.027, P -0.822, F -0.214, Q -0.042, A -0.319, N -0.229, S -0.337, H -0.052, L -0.041, K -0.008, Y -0.462, G -0.211, C -0.13, E -0.475, D -0.451
N31: V -0.158, F -0.259, W -0.367, A -0.114, T -0.154, R -0.007, K -0.028, L -0.092, I -0.401, H -0.095, Q -0.188, E -0.122, Y -0.255, M -0.009, C 0.035, D -0.116, P -0.194
W36: Q -0.71, V 0.009, A -0.104, I -0.139, D -0.403, M -0.202, K -0.889, H -0.429, R -0.462, F 0.083, C -0.11, T -0.234, N -0.367, Y -0.099, L -0.2, G -0.767, S -0.211
V25: S -0.95, T -0.513, P -0.825, I -0.317, K -0.902, N -0.95, W -0.983, R -0.945, E -0.752, C -0.393, L -0.378, H -0.656, F -0.964, G -0.878, M -0.801
I17: M -0.053, S -0.576, G -0.863, P -0.769, T -0.114, L -0.055, K -0.692, N -0.733, C 0.014, A -0.201, R -0.332, E -0.99, F -0.597, Q -0.672, V -0.048, D -0.889, H -0.715
S18: F -0.157, R -0.646, I -0.528
